system: K4 kissing-loop RNA reporter; test: apparent KD of K4 kissing-loop reporter; higher = weaker reporter binding; conditions: Eterna round: R107; input ligand: arginine 13.2 mM
Method: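 RNA-MaP round R107: designed RNA switches with theophylline, tryptophan, arginine or FMN aptamers are transcribed on-chip within common flanks. They are titrated with a labelled K4 kissing-loop RNA reporter in RNA-MaP buffer (100 mM Tris pH 7.5, 80 mM KCl, 4 mM MgCl2), without ligand or with the indicated ligand. Median apparent KD per design.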
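Further: bound reporter read as fluorescence of individual clusters on recovered sequencing chips by microscopy, with normalized cluster intensities fitted with a binding model.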

Sequence | apparent KD of K4 kissing-loop reporter [nM]
UGUCAUUGGUCUGAUACCAGCUUGAUCGGUAAACGAUCUACUGGAGUGAUGUUCCUAAAUAGCCCUUGGCAGCAGACCGAUGACU [TheoBS 4 #SwitchBubble #StaticStem] | 157
GGGAGUAGUGCGGCCGCCACUGAGAAAGAAGAAGAAUAUAGUGAUGUUAUAUAGGAAAUAAAGAACAGGACCGGGCAUUAGAUUU [SSTRyptB.N] | 216
ACCGGACAAGAGGUGUCAGUGAUGUUGGCGCGAGGACCGGUACGGCCGCCACUCGAGGAAAGCGGUCACGCCCUGGUAGGACUGG [theeternabot_exclusion_KL_Trp_A_22] | 106
AAGUGCCUCAAGAGGCAGUAUCUGCCUCAACGAGGACCGGUACGGCCGCCACUCGAAUAAUAGAGUGAUGUUCUAAGAGGCACAA [AK1.5 SS Tryptophan A] | 284
AGAACUGUCUGAGAUACCAGCCAAGGAGUGAUGUUCCGGCUCGACGAAACGUCGAGCAAUGGCCCUUGGCAGCUCAGACAGUUCA [Omei KL Theo B SS A v3] | 80.9
GCGGCCCAGACGGAUACCAGUGACCCGCUGGGAACCGCGGGCCCAGAGUGAUGUUCGGGACACCCUUGGCAGCCGCCUGGGUCGC [#2 Same State - Theophylline B Attempt #19 (HarryS)] | 293
AAGCAUUCUUCGGAUUGCAGACCCGCUGAGGAGGAUAUGACGAAAGUCAGAAGGUUUCAGUGAUGUUGAGGCCUCCUCAAUGGUC [whbob_Ex_FMNA__2th183] | 259
GCAGUGAUGUUGCUCGUUUCAUCGCGAGAUACCAGACCAUAUGAGGUCCCUUGGCAGCUCUAGUCAUCUGGUCCUUUUGCGUACU [theeternabot_exclusion_KL_Theo_A_2] | 620
GUUAUCACGCGAAGGAGCGCGGAGCGAUAACGCAGUGAUGUUGCGUUAAACGUAAUAUAAUCGCAGGUAGGUCGCGCGUGAUACC [Arg B Ex t6] | 80.2
ACAUUUUCAAGUGAUACCAGACAUUUUUUUUUCUUUAUUUAUGCUAAGUGAUGUUUAGCAGUCCCUUGGCAGCACUAUUUAACUA [JR_Nu_SSTheophyB_Sub031] | 101
CGCUGGGCGAGUGAUGUUCGCUCACGUGAUACCAGUGCCAUCCAACACCCUUGGCAGCACGCGGGCAGUGAUGUUGUCCUUGUAU [Exclusion Theophylline A GF6] | 117
AAUUGGCAGUGAUGUUGUCAAGGACAUACGAAGGAUAUAAGUGAAGUUAGAAGGUCGACCAUCACUUCUUUGCCAUUUGCAUGAC [theeternabot_exclusion_KL_FMN_A_20] | 214
CAUCCUACACCUCAAGCAGUGAUGUUGCUACGAGGACCGGUACGGCCGCCACUCGUUUAAGCAUGGAUAUUAGCUGUGCUGACUA [theeternabot_exclusion_KL_Trp_A_16] | 458
UGACUGGACUGAAGGAGCGCUGAACUCCUAGUGAUGUUAGGAUAACGAGACAAAGUCUCGCGGCAGGUAGGUCGCAGUCUAGUCU | 93.3
CGCGGCCGGCCGGAUACCAGUGACCCGCUGGCAACCGCGGGCCCAGAGUGAUGUUCGGGACACCCUUGGCAGCCGCCUGGGCGUG [#2 Same State - Theophylline B Attempt #4 (HarryS)] | 309
ACGUAGUUCUAGGAUACCAGCCAAGGAGCCCAGGACAAAAGUCCUGGCGCCAGUGAUGUUGGCCCUUGGCAGCCUAGAACUACGA [Omei KL Theo B Exc B v4] | 157
GCUACUGCUGAAGGAUAUAUCAAUAGAGUGAUGUUCUAUGUCGGUAGCCCGAAAGGGCUACCGACGGUAGAAGGUCAGCAGUAGC | 1090
AACUGGGUUCGUGAUACCAGCUCACACAUGAGUGAUGUUCAUGUAGUGGGUAAAAUGUGGAGCCCUUGGCAGCACUGUGACCACG [XTheo-B1] | 76.4
UACUAUAGUGAUGUUAUAGAUAAACCAGAUACCAGUGUAACAUAACACCCUUGGCAGCUGAUGAGGGAAAAUAUAAAUGUGUAUU [AstrosSSTHe-A#4newdesignED10.09] | 204
GUUGACUACCAGAGGUGAUGUAUAGUAUCGCGAGGACCGGUACGGCCGCCACUCGUGAAGAGAAAGGAGUGAUGUUCCGUAAUGG [C9] | 254
UAAUAGUAGACCAGGUCUACUAUUAGGGAUACCAGCCUCGGUCGAGGCCCUUGGCAGCCCAGCGGGUCCAGUGAUGUUGGAUGUC [Beoratri] | 284
UUGACCUACUCAGGAUAUCCGCAGUGAUGUUGCGGUUGGCCUGAGCGACAUGAAAAUCUUACUACAGGAGAAGGGAGAGGGUUAC [Anraerce] | 79.8
UUAGGAGUGGAAGGAUAUCCUGGUGUGGGUGAUGUUAGUGAUGUUGAAGGUGCAGUGAUGUUGCGCGGAGAAGGUCCGGUGUUGA [BDazzled - #6 - Exc. FMN B] | 341
UGACUGGACUGAAGGAGCGUUGAAGGAGCGUAAGCAGUGAUGUUGCUUACAGGUAGGUCGCAGCAGGUAGGUCGCAGUCUAGUCU [ArgBS 28 #DoubleAptamer #SwitchBubble] | 102

same assay, conditions: Eterna round: R107; input ligand: none

Sequence | apparent KD of K4 kissing-loop reporter [nM]
AGACUACCACACUGUCAAUAGACAGUGGACUAGGAUAUGCUGAUAAGCAGAAGGAGUGAUGUUCCGAGGUAGUCAAUAAAAUAAU [FmnAX 13 G28+G66] | 315
CCCUCACGAGUGAUGUUCGUAGGGUACAGUCAGGAUAUCAUGCGGUUGAGAAGGGACAGAGAGGGCGGCGGCGGGUUGCUCUUCG [Xeaan] | 242
ACACGGGUCUCGGCCGCCACUCUGCCUACCACCAUUAGUGCCAGUGAUGUUGGCAGGUGAGGGCUGAGGACCGGGAGAUCCAUAC [Zaremais] | 136
UAGCGUAUUGAAGGAUAUUGCCUAGGAGUGAUGUUUGUAGAAAAUUUCCAACGGAACGAAUGUUAGCAAGAAGGUCAAUGGCCUU [theeternabot_exclusion_KL_FMN_B_40] | 404
AGCUCAGAGUGACUUGAUAAGAGUCACAAACGAGGACCGGUACGGCCGCCACUCGAAAUAACGAGAGUGAUGUUCUCGCUGAGCA [FiskerMod 5 - Jieux - Same State Tryptophan A] | 980
GAGGUUUACGUAGGAUAUCGAUAAUGAGUAAAUGGAGUGAUGUUCCGAAAUUGAAUAAGAGAUGAGCGAGAAGGGCGGAUUAAGC [FMN B Same State; Euporia Solution] | 37.8
GUGUCCUAGUCGGCCGCCACUGGUACGAAAAUAGAAGGACGUGUGCACAUGAGUGAUGUUCAUGUCAGGACCGGGACUAGGGUGU [KL-SSTryp-B6 Brourdwalk2] | 367
UGUCAUUGGUCUGAUACCAGCUUGAUCGGUAAACGAUCUACUGGAGUGAUGUUCCUAAAUAGCCCUUGGCAGCAGACCGAUGACU [TheoBS 4 #SwitchBubble #StaticStem] | 180
GGGAGUAGUGCGGCCGCCACUGAGAAAGAAGAAGAAUAUAGUGAUGUUAUAUAGGAAAUAAAGAACAGGACCGGGCAUUAGAUUU [SSTRyptB.N] | 244
ACCGGACAAGAGGUGUCAGUGAUGUUGGCGCGAGGACCGGUACGGCCGCCACUCGAGGAAAGCGGUCACGCCCUGGUAGGACUGG [theeternabot_exclusion_KL_Trp_A_22] | 144
AAGUGCCUCAAGAGGCAGUAUCUGCCUCAACGAGGACCGGUACGGCCGCCACUCGAAUAAUAGAGUGAUGUUCUAAGAGGCACAA [AK1.5 SS Tryptophan A] | 483
AGAACUGUCUGAGAUACCAGCCAAGGAGUGAUGUUCCGGCUCGACGAAACGUCGAGCAAUGGCCCUUGGCAGCUCAGACAGUUCA [Omei KL Theo B SS A v3] | 182
GCGGCCCAGACGGAUACCAGUGACCCGCUGGGAACCGCGGGCCCAGAGUGAUGUUCGGGACACCCUUGGCAGCCGCCUGGGUCGC [#2 Same State - Theophylline B Attempt #19 (HarryS)] | 491
AAGCAUUCUUCGGAUUGCAGACCCGCUGAGGAGGAUAUGACGAAAGUCAGAAGGUUUCAGUGAUGUUGAGGCCUCCUCAAUGGUC [whbob_Ex_FMNA__2th183] | 250
GCAGUGAUGUUGCUCGUUUCAUCGCGAGAUACCAGACCAUAUGAGGUCCCUUGGCAGCUCUAGUCAUCUGGUCCUUUUGCGUACU [theeternabot_exclusion_KL_Theo_A_2] | 941

From the supplement of paper PMC9170038
